From US20040018957A1, “Crystal structure of a Ras-P13K complex” (priority 2000, published 2004)

How the values were obtained:
PI3K = target: T1, PI3K (Homo sapiens, UniProt P48736); experiment: Steady state and kinetic measurements of mant-ATP and mant-ADP binding; settings: FIG. 2C
T1 construct: a construct containing residues 144-1102 of the human PI3Kγ with a C-terminal His6 tag; His6 (C); made in house; host or cells: Sf9 insect cells (baculovirus, pVL1393)
Method: Equilibrium binding of mant-ATP to PI3K was measured in a SLM 8000 S spectrofluorimeter with λex=280 nm and […]. This allowed monitoring of energy transfer from tryptophan in the PI3K to mant-ATP. Mant-ATP was titrated into a 1 μM solution of PI3K in running buffer. Each data point represents the average of data collected for 30 seconds with a 1 second integration time. For data collected in the presence of Ras, the solution also contained 6 μM H-ras.GMPPNP. The data were fitted to the binding equation with Kaleidagraph.
All kinetic data were collected in a Hi-Tech Na61 instrument set up in the single push mode with λex=280 nm and emission monitored with 399 nm cutoff filters. A solution of PI3K was mixed a solution of mant-ATP such that the final PI3K concentration was 1 μM and the ATP concentrations were 2.5, 5. 7.5, 10, 12.5, and 25 μM. The displacement experiment was carried out by mixing 1 μM PI3K and 2 μM mant-ATP with 50 or 200 μM ATP. Curve fits were carried out with the Hi-Tech software and Kaleidagraph. Equilibrium and kinetic data for mant-ADP were collected by the same methods.

N-Ras.GDP = N-Ras.GDP (Homo sapiens, UniProt P01111); experiment: Binding of PI3Kγ constructs to N-Ras.GDP
Sequence of N-Ras.GDP (P01111 whole entry): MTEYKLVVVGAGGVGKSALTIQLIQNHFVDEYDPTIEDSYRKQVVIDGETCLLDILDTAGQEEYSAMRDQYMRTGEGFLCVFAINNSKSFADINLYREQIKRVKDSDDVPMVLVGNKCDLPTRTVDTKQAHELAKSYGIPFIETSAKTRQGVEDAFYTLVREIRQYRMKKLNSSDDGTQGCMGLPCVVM

N-Ras.mant-GMPPNP [1] = target: T2, N-Ras.mant-GMPPNP (Homo sapiens, UniProt P01111); experiment: Stopped flow anisotropy, association and dissociation kinetics; type: binding; settings: 20° C.
T2 construct: fluorescence anisotropy of full length, unmodified N-Ras.mant-GMPPNP
Method: A Hi-Tech MX61 instrument (Hi-Tech, Salisbury) set up in the T-format with prism polarizers was used to collect data at 20° C. The mant group was excited at 366 nm and emission monitored through 399 nm cutoff filters. The association kinetics were followed by rapid mixing of PI3Kγ with 1 μM N-Ras.mant-GMPPNP under pseudo first-order conditions (PI3Kγ in large excess). Specifically, equal proportions of N-Ras and PI3Kγ were mixed to a final Ras concentration of 1 μM and final PI3Kγ concentrations of 5 and 10 μM. The dissociation rate was measured by mixing a solution of 1 μM N-Ras.mant-GMPPNP and 5 μM PI3K with 9 μM N-Ras.GMPPNP. Attempts to determine association rates at higher PI3K concentrations were limited by solubility of the protein. Data were fitted to single exponential curves within the Hi-Tech software.
Target sequence in this assay (P01111 whole entry): as above
Target sequence in this assay (P48736 144-1102 partner limits assumed): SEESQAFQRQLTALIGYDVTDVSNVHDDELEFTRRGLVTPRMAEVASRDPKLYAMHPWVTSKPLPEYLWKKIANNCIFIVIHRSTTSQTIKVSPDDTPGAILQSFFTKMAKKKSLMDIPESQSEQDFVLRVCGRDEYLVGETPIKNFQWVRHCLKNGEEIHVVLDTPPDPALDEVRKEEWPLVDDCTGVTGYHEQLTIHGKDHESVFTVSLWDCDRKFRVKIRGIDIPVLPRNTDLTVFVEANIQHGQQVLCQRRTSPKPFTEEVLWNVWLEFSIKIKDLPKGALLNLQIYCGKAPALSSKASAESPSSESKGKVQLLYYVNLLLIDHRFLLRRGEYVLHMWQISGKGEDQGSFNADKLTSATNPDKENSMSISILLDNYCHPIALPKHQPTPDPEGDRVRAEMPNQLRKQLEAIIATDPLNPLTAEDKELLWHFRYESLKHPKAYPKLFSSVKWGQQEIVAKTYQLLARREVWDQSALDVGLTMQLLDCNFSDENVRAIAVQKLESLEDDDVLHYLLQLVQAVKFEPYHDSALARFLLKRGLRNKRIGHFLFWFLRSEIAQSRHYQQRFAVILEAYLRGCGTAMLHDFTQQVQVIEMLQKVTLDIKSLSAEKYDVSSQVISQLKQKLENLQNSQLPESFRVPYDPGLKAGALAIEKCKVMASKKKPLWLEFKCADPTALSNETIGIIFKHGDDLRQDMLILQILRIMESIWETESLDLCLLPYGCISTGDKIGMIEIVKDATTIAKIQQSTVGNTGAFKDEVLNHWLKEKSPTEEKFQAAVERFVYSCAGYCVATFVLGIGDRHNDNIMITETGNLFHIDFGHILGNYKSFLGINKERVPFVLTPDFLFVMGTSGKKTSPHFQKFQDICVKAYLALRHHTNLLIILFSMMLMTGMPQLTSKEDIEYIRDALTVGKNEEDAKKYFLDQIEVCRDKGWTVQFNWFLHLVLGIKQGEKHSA

N-Ras.mant-GMPPNP [2] = target: T2, N-Ras.mant-GMPPNP; experiment: Fluorescence anisotropy titration of PI3Kγ 144-1102 into N-Ras.mant-GMPPNP; type: binding; settings: fluorescence anisotropy, 20° C., 1 μM N-Ras.mant-GMPPNP
Method: (§1) Mant-nucleotides were synthesised as described previously (Jameson and Eccleston, 1997). N-Ras and H-Ras mutants were loaded with mant-GMPPNP as in (Moore et al., 1993), gel filtered into running buffer (20 mM Tris pH 7.5, 2 mM MgCl2, 1 mM DTT), and frozen at −80° C. The concentration of Ras.mant-GMPPNP was determined by measuring the absorbance of the mant group at […] with ε=5700 M^−1 cm^−1 (Hiratsuka, 1983). For binding assays, the 144-1102 human PI3Kγ was titrated into a 1 μM solution of fill length, unmodified N-Ras.mant-GMPPNP. Data were collected with SLM 8000 S and ISS PC1 spectrofluorimeters, set up in the T-format and L-format, respectively, with prism polarizers. All measurements were taken at 20° C. with a λex of 366 nm. Both emission PMTs were fitted with 399 nm cutoff filters. Five measurements of each data point were obtained and averaged. Data were fitted to the binding equation.
Target sequence in this assay (P01111 whole entry): as the sequence (P01111 whole entry) above

wild type H-Ras = wild type H-Ras (Homo sapiens, UniProt P01112); experiment: Fluorescence anisotropy titration of PI3Kγ with H-Ras; type: binding
Sequence of wild type H-Ras (P01112 whole entry): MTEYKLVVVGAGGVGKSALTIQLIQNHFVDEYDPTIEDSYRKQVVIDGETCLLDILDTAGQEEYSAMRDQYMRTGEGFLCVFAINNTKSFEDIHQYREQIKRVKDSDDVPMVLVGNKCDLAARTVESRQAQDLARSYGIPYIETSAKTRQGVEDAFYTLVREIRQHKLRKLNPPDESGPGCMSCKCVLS
Sequence of wild type H-Ras (P48736 144-1102 partner limits assumed): as the sequence (P48736 144-1102 partner limits assumed) above
Method: as §1

T1 sequence (P48736 144-1102): as the sequence (P48736 144-1102 partner limits assumed) above

nucleotide release from PI3Kγ (PI3K)	Kd (N-Ras.mant-GMPPNP [2]) [nM]	Kd (wild type H-Ras) [nM]	Substance	binding to N-Ras.GDP (N-Ras.GDP)	observed rate constant of the Ras.PI3K complex (single-exponential fit) (N-Ras.mant-GMPPNP [1]) [s⁻¹]
slower than mant-ATP release			mant-ADP		
	2800 ± 400	3200 ± 500	wild type PI3Kγ: residues 144-1102 of human PI3Kγ with a C-terminal His6 tag	Neither the wild-type protein, the pseudo wild-type (V327A, see methods), nor the V223K mutant exhibit detectable binding	18
